# What was measured:
# [1] = target: A281C (single-Cys mutant of FT-HT-Xa) (S. cerevisiae) (UniProt D6VTK4); assay: cross-linking
# [2] = target: A281C (single-Cys mutant of FT-HT-Xa) (S. cerevisiae) (UniProt D6VTK4); assay: cross-linking; remark: listed apart in the source
# [3] = target: A281C (single-Cys mutant of FT-HT-Xa) (S. cerevisiae) (UniProt D6VTK4); assay: SDS-PAGE and western blot of membranes
# [4] = target: A281C (single-Cys mutant of FT-HT-Xa) (S. cerevisiae) (UniProt D6VTK4); assay: cross-linking; remark: listed apart in the source
# [5] = target: A285C (single-Cys mutant of FT-HT-Xa) (S. cerevisiae) (UniProt D6VTK4); assay: cross-linking
# [6] = target: A285C (single-Cys mutant of FT-HT-Xa) (S. cerevisiae) (UniProt D6VTK4); assay: cross-linking; remark: listed apart in the source
# [7] = target: A285C (single-Cys mutant of FT-HT-Xa) (S. cerevisiae) (UniProt D6VTK4); assay: SDS-PAGE and western blot of membranes
# [8] = target: A285C (single-Cys mutant of FT-HT-Xa) (S. cerevisiae) (UniProt D6VTK4); assay: cross-linking; remark: listed apart in the source
# [9] = target: L283C (single-Cys mutant of FT-HT-Xa) (S. cerevisiae) (UniProt D6VTK4); assay: cross-linking
# [10] = target: L283C (single-Cys mutant of FT-HT-Xa) (S. cerevisiae) (UniProt D6VTK4); assay: cross-linking; remark: listed apart in the source
# [11] = target: L283C (single-Cys mutant of FT-HT-Xa) (S. cerevisiae) (UniProt D6VTK4); assay: SDS-PAGE and western blot of membranes
# [12] = target: L283C (single-Cys mutant of FT-HT-Xa) (S. cerevisiae) (UniProt D6VTK4); assay: cross-linking; remark: listed apart in the source
# [13] = target: L284C (single-Cys mutant of FT-HT-Xa) (S. cerevisiae) (UniProt D6VTK4); assay: cross-linking
# [14] = target: L284C (single-Cys mutant of FT-HT-Xa) (S. cerevisiae) (UniProt D6VTK4); assay: cross-linking; remark: listed apart in the source
# [15] = target: L284C (single-Cys mutant of FT-HT-Xa) (S. cerevisiae) (UniProt D6VTK4); assay: SDS-PAGE and western blot of membranes
# [16] = target: L284C (single-Cys mutant of FT-HT-Xa) (S. cerevisiae) (UniProt D6VTK4); assay: cross-linking; remark: listed apart in the source
# [17] = target: L287C (single-Cys mutant of FT-HT-Xa) (S. cerevisiae) (UniProt D6VTK4); assay: cross-linking
# [18] = target: L287C (single-Cys mutant of FT-HT-Xa) (S. cerevisiae) (UniProt D6VTK4); assay: cross-linking; remark: listed apart in the source
# [19] = target: L287C (single-Cys mutant of FT-HT-Xa) (S. cerevisiae) (UniProt D6VTK4); assay: SDS-PAGE and western blot of membranes
# [20] = target: L287C (single-Cys mutant of FT-HT-Xa) (S. cerevisiae) (UniProt D6VTK4); assay: cross-linking; remark: listed apart in the source
# [21] = target: L289C (single-Cys mutant of FT-HT-Xa) (S. cerevisiae) (UniProt D6VTK4); assay: cross-linking
# [22] = target: L289C (single-Cys mutant of FT-HT-Xa) (S. cerevisiae) (UniProt D6VTK4); assay: cross-linking; remark: listed apart in the source
# [23] = target: L289C (single-Cys mutant of FT-HT-Xa) (S. cerevisiae) (UniProt D6VTK4); assay: SDS-PAGE and western blot of membranes
# [24] = target: L289C (single-Cys mutant of FT-HT-Xa) (S. cerevisiae) (UniProt D6VTK4); assay: cross-linking; remark: listed apart in the source
# [25] = target: S288C (single-Cys mutant of FT-HT-Xa) (S. cerevisiae) (UniProt D6VTK4); assay: cross-linking
# [26] = target: S288C (single-Cys mutant of FT-HT-Xa) (S. cerevisiae) (UniProt D6VTK4); assay: cross-linking; remark: listed apart in the source
# [27] = target: S288C (single-Cys mutant of FT-HT-Xa) (S. cerevisiae) (UniProt D6VTK4); assay: SDS-PAGE and western blot of membranes
# [28] = target: S288C (single-Cys mutant of FT-HT-Xa) (S. cerevisiae) (UniProt D6VTK4); assay: cross-linking; remark: listed apart in the source
# [29] = target: T282C (single-Cys mutant of FT-HT-Xa) (S. cerevisiae) (UniProt D6VTK4); assay: cross-linking
# [30] = target: T282C (single-Cys mutant of FT-HT-Xa) (S. cerevisiae) (UniProt D6VTK4); assay: cross-linking; remark: listed apart in the source
# [31] = target: T282C (single-Cys mutant of FT-HT-Xa) (S. cerevisiae) (UniProt D6VTK4); assay: SDS-PAGE and western blot of membranes
# [32] = target: T282C (single-Cys mutant of FT-HT-Xa) (S. cerevisiae) (UniProt D6VTK4); assay: cross-linking; remark: listed apart in the source
# [33] = target: V280C (single-Cys mutant of FT-HT-Xa) (S. cerevisiae) (UniProt D6VTK4); assay: cross-linking
# [34] = target: V280C (single-Cys mutant of FT-HT-Xa) (S. cerevisiae) (UniProt D6VTK4); assay: cross-linking; remark: listed apart in the source
# [35] = target: V280C (single-Cys mutant of FT-HT-Xa) (S. cerevisiae) (UniProt D6VTK4); assay: SDS-PAGE and western blot of membranes
# [36] = target: V280C (single-Cys mutant of FT-HT-Xa) (S. cerevisiae) (UniProt D6VTK4); assay: cross-linking; remark: listed apart in the source
# [37] = target: V286C (single-Cys mutant of FT-HT-Xa) (S. cerevisiae) (UniProt D6VTK4); assay: cross-linking
# [38] = target: V286C (single-Cys mutant of FT-HT-Xa) (S. cerevisiae) (UniProt D6VTK4); assay: cross-linking; remark: listed apart in the source
# [39] = target: V286C (single-Cys mutant of FT-HT-Xa) (S. cerevisiae) (UniProt D6VTK4); assay: SDS-PAGE and western blot of membranes
# [40] = target: V286C (single-Cys mutant of FT-HT-Xa) (S. cerevisiae) (UniProt D6VTK4); assay: cross-linking; remark: listed apart in the source
substance,measurement,setting,value
A281C (single-Cys mutant of FT-HT-Xa) (from UniProt D6VTK4 1-431) (receptor),percent dimer,[1],14.3%
same,percent dimer,[2],11.3%
same,percent dimer,[3],16.8%
same,percent dimer,[4],11.9%
A285C (single-Cys mutant of FT-HT-Xa) (from UniProt D6VTK4 1-431) (receptor),percent dimer,[5],16.5%
same,percent dimer,[6],17.7%
same,percent dimer,[7],16.5%
same,percent dimer,[8],53.5%
L283C (single-Cys mutant of FT-HT-Xa) (from UniProt D6VTK4 1-431) (receptor),percent dimer,[9],13.3%
same,percent dimer,[10],10.7%
same,percent dimer,[11],16.6%
same,percent dimer,[12],15.7%
L284C (single-Cys mutant of FT-HT-Xa) (from UniProt D6VTK4 1-431) (receptor),percent dimer,[13],17.7%
same,percent dimer,[14],15.3%
same,percent dimer,[15],15.2%
same,percent dimer,[16],12%
L287C (single-Cys mutant of FT-HT-Xa) (from UniProt D6VTK4 1-431) (receptor),percent dimer,[17],11.3%
same,percent dimer,[18],16%
same,percent dimer,[19],16%
same,percent dimer,[20],14.3%
L289C (single-Cys mutant of FT-HT-Xa) (from UniProt D6VTK4 1-431) (receptor),percent dimer,[21],50.2%
same,percent dimer,[22],40.9%
same,percent dimer,[23],26.8%
same,percent dimer,[24],61%
S288C (single-Cys mutant of FT-HT-Xa) (from UniProt D6VTK4 1-431) (receptor),percent dimer,[25],11.5%
same,percent dimer,[26],12.6%
same,percent dimer,[27],14.7%
same,percent dimer,[28],14.7%
T282C (single-Cys mutant of FT-HT-Xa) (from UniProt D6VTK4 1-431) (receptor),percent dimer,[29],12%
same,percent dimer,[30],11.7%
same,percent dimer,[31],11.7%
same,percent dimer,[32],15.4%
V280C (single-Cys mutant of FT-HT-Xa) (from UniProt D6VTK4 1-431) (receptor),percent dimer,[33],16.3%
same,percent dimer,[34],12.4%
same,percent dimer,[35],15.3%
same,percent dimer,[36],14.7%
V286C (single-Cys mutant of FT-HT-Xa) (from UniProt D6VTK4 1-431) (receptor),percent dimer,[37],13.2%
same,percent dimer,[38],15.9%
same,percent dimer,[39],15.6%
same,percent dimer,[40],17%
